Results taken from publication PMC11300603.

Tests used:
[1] = molecular target: CpaF from C. crescentus (C. crescentus NA1000); experiment: cryo-EM structure; 5 mg/mL CpaF with 4 mM AMPPNP, 5 mM MgSO4 in total, 8 mM CHAPSO, 45 min at room temperature before vitrification; single particle, C2 symmetry
[2] = molecular target: CpaF from C. crescentus (C. crescentus NA1000); experiment: cryo-EM structure; 5 mg/mL CpaF without nucleotide addition, in the presence of Mg2+, 8 mM CHAPSO; single particle, C2 symmetry
[3] = molecular target: CpaF from C. crescentus (C. crescentus NA1000); experiment: cryo-EM structure; 5 mg/mL CpaF with 4 mM ADP, 5 mM MgSO4 in total, 8 mM CHAPSO, 45 min at room temperature before vitrification; single particle, C2 symmetry

Measured: stoichiometry N

CpaF from C. crescentus (enzyme)
6: all assays above
